Measured values published in publication PMC9205196 (Nature chemical biology, 2022).

T1: FGFR1, biotinylated (UniProt P11362 22-822, biotin (sulfo-NHS-biotin))
T1 chain: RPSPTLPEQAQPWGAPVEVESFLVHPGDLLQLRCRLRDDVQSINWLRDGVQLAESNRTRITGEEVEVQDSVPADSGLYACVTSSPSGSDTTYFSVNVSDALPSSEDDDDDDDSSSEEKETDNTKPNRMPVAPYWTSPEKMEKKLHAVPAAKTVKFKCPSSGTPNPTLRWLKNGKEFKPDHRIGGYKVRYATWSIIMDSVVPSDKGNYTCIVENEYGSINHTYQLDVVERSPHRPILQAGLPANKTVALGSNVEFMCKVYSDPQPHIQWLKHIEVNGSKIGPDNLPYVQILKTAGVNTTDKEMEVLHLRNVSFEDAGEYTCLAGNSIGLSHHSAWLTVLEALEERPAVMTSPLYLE


Legend:
Test in all cases: AlphaScreen or HTRF
FGFR1, biotinylated [1] = biological target: T1, FGFR1, biotinylated
[2] = biological target: Vitronectin (VN), biotinylated (UniProt P04004 20-478, biotin (sulfo-NHS-biotin))
FGFR1, biotinylated [3] = biological target: T1, FGFR1, biotinylated
[4] = biological target: Recombinant human FGF2 (fibroblast growth factor-2), biotinylated (human, biotin (sulfo-NHS-biotin))

Vitronectin (VN), biotinylated, sequence (P04004 20-478): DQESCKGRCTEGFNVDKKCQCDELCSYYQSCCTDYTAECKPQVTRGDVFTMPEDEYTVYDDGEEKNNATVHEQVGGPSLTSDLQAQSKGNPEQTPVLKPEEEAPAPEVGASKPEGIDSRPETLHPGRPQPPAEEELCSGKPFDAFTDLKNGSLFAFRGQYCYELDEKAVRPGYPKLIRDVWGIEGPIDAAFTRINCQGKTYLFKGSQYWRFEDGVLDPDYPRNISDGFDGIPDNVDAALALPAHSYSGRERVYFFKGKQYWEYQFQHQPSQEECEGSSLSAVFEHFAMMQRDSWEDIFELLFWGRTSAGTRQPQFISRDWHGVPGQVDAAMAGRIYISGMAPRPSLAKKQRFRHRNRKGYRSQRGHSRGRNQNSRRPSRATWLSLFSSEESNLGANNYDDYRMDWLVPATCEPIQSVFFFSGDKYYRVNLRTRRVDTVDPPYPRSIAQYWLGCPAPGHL

Row | EC50 of ternary complex formation with soluble non-tagged FGF2 (FGFR1, biotinylated [1]) [nM] | EC50 [2] [nM] | EC50 (FGFR1, biotinylated [3]) [nM] | EC50 [4] [nM] | Binder
1 | 0.004 | 0.8 | 0.4 | 0.3 | SDC1_(45,47HEP): murine syndecan-1 ectodomain with heparin conjugated at residues 45 and 47 (domain or fragment, p-propargyltyrosine (pPY) at 45 and 47, each joined by CuAAC to azido-heparin (azHEP)) QIVAVNVPPEDQDGSGDDSDNFYGYGTGALPDTLSRQTPSTWKDVWLLTATPTAPEPTSSNTETAFTSVLPAGEKPEEGEPVLHVEAEPGFTARDKEKEVTTRPRETVQLPITQRASTVRVTTAQAAVTSHPHGGMQPGLHETSAPTAPGQPDHQPPRVEGGGTSVIKEVVEDGTANQLPAGEGSGEQDFTFETSGENTAVAAVEPGLRNQPPVDEGATGASQSLLDRKEVLG
2 | 4 | > 100 | > 20 |  | mSDC1: commercial glycosylated, mammalian expressed recombinant mouse SDC1 ectodomain (domain or fragment, UniProt P18828 23-255, looked up, native GAG chains from the mammalian host (CS predominant over HS by the paper's disaccharide analysis)) QIVAVNVPPEDQDGSGDDSDNFSGSGTGALPDTLSRQTPSTWKDVWLLTATPTAPEPTSSNTETAFTSVLPAGEKPEEGEPVLHVEAEPGFTARDKEKEVTTRPRETVQLPITQRASTVRVTTAQAAVTSHPHGGMQPGLHETSAPTAPGQPDHQPPRVEGGGTSVIKEVVEDGTANQLPAGEGSGEQDFTFETSGENTAVAAVEPGLRNQPPVDEGATGASQSLLDRKEVLG
3 | 0.008 | 0.5 | 0.3 | 0.3 | SDC1_(37,45,47HEP): murine syndecan-1 ectodomain with heparin conjugated at residues 37, 45 and 47 (domain or fragment, p-propargyltyrosine (pPY) at 37, 45 and 47, each joined by CuAAC to azido-heparin (azHEP)) QIVAVNVPPEDQDGYGDDSDNFYGYGTGALPDTLSRQTPSTWKDVWLLTATPTAPEPTSSNTETAFTSVLPAGEKPEEGEPVLHVEAEPGFTARDKEKEVTTRPRETVQLPITQRASTVRVTTAQAAVTSHPHGGMQPGLHETSAPTAPGQPDHQPPRVEGGGTSVIKEVVEDGTANQLPAGEGSGEQDFTFETSGENTAVAAVEPGLRNQPPVDEGATGASQSLLDRKEVLG
